Assay results published in patent US5753621A, “Pulmonary surfactant protein fragments” (Abbott Laboratories, priority 1995, dated 1998).

Key:
Type in all cases: physicochemical
[1] = Dynamic surface tension versus compressed surface area, modified Wilhelmy Surface Balance (Langmuir Trough); settings: peptide 0.5 mg/ml (~2% of solids) in DPPC:PG:PA 68:22:9; 675 ug phospholipid on 445 sq. cm trough; recorded during seven complete cycles
Description: (§1) Prior to testing for surface activity, the synthetic fragments were admixed with lipids. A lipid mixture consisting of 68% 1,2-dipalmitoyl-sn-phosphatidylcholine (DPPC), 22% egg phosphatidylglycerol (PG) and 9% palmitic acid on a weight basis was prepared by dissolving the lipids in chloroform:methanol (2:1). The required amount of peptide fragment was dissolved in methanol and heated to 60° C. for 10 minutes. The peptide solution was then added to the lipid mixture prewarmed to 45° C. for ten minutes. The samples were mixed at 45° C. by gentle swirling at 100 revolutions per minute on a Buchi rotary evaporator. The organic solvents were then evaporated at 45° C. by increasing the vacuum in 100 torr increments every five minutes until most of the solvent was removed. Final vacuum was between 150-200 torr. Following evaporation, the solids were then suspended in 10% ethanol prewarmed to 45° C. and which was prepared using deionized distilled water. The suspension was gently mixed with vortexing and placed back under vacuum at 600 torr with a repeat of the vacuum ramping process. Final vacuum for the ethanol removal was 50 torr. Following complete removal of ethanol the suspension was diluted with aqueous 0.15M NaCl at 45° C. to yield an admixture with a phospholipid concentration of 25 mg/ml. The peptide/lipid admixtures were formed at final peptide concentrations of 0.5 mg/ml (equivalent to 2% of solids concentration).
The dynamic surface tension lowering properties of the peptide/lipid admixtures were studied using a modified Wilhelmy Surface Balance (Langmuir Trough). The instrument consists of an all Teflon trough and movable Teflon ribbon (dam) barrier system which completely contains and defines a variable surface area. Surface area was varied through the use of a constant rate reversible 3-phase motor to drive the Teflon barrier. A Cahn 2000 electrobalance (Cahn Instruments, Cerittos, Calif.) with a sandblasted 1 cm platinum plate and stainless steel hangdown wire was employed to determine the surface tension at the liquid-air interface. The entire apparatus was situated in a thermostated incubator set at 45° C. Surface area-surface tension measurements were made by adding 950 ml of 0.15M NaCl to the trough. Subphase temperature was controlled during the measurements at 36°-38° C.
For each experiment 27 ul of peptide/lipid admixture was applied in a random array of 13 droplets to the surface of the temperature controlled subphase and allowed to spread spontaneously for 3 minutes. (The 27 ul application corresponds to 675 ug of phospholipid). The trough surface area was then cycled from a maximum (445 sq. cm) to a minimum (178 sq. cm) surface area and back to maximum at a cycling rate of 3 cycles/min (compression ratio 2.5:1). The dynamic surface tension versus surface area was recorded for 7 complete compression-expansion cycles for each application.

[2] = Adsorption capacity, modified Wilhelmy surface balance; settings: measured after three (3) minutes spreading time; peptide 0.5 mg/ml (~2% of solids)
Description: as §1
A procedure similar to that described by Notter, et al., Pediatric Res. 16, 515-519 (1982) was employed to determine the absorption rate in the absence of diffusion resistance. The modified Wilhelmy surface balance as described above was used. However, instead of using a Langmuir trough, a round Teflon dish (5.1 cm diameter) was employed. The subphase, 70 ml of 0.15M NaCl, was allowed to equilibrate to 37° C. in the incubator and was continuously stirred with a Teflon coated magnetic stirrer. An aliquot of the peptide/lipid fragment admixture containing 5 mg of total phospholipid was dispersed in 10 ml of 0.15M NaCl by vortexing for 10 seconds. This dispersion was then added to the saline subphase. Surface tension lowering was monitored using a strip chart recorder connected to the electro-balance output.

[3] = Relative surface activity by dilution studies on the modified Wilhelmy Balance-Langmuir Trough; settings: 675 ug phospholipid
Description: For the purpose of this comparison "surface activity" is defined as follows: For any given peptide concentration, the admixture is required to result in a minimum dynamic surface tension of less than 10 dynes/cm for each of seven consecutive expansion/compression cycles.
Initially each of the admixtures was formulated so as to contain an equal number of moles of the individual peptide as is contained in a 0.5 mg/mL admixture of SP-B(53-78). […] Thereafter, each of these admixtures was diluted with the standard lipid mixture as described in Example 4, so as to provide doubling dilutions of the equimolar "parent" stock peptide admixture. The lipid concentration in all cases was maintained at 25 mg/ml.
Assessment of relative surface activity was conducted on the modified Wilhemy-Langmuir Surface Balance. For these studies a standard volume of 27 ul of each admixture, corresponding to a total phospholipid mass of 675 ug, was applied to the Langmuir Trough with maximum dimensions of 445 sq. cm.

[4] = Pulsating Bubble Surfactometer (PBS) surface tension; settings: after 5 minutes pulsation (100 cycles); 1 mg/ml phospholipid, peptide 2% of phospholipids; 0.15M NaCl; 37° C.; 20 cycles/minute; SD in parenthesis
Description: as §1
The PBS equipment (Electronetics, Buffalo, N.Y.) used was essentially equivalent to that described in detail by G. Enhorning, J. Appld. Physiol. 43, 198-203, (1977). Recordings were made of the pressure gradient across the wall of a small air bubble, communicating with ambient air by means of a narrow chimney stack, but otherwise entirely surrounded by a 40 ul volume of the peptide/lipid admixture. The admixture concentration employed for these studies was 1 mg/ml total phospholipid (0.02 mg/ml total peptide) and the diluent was 0.15M NaCl.
Immediately prior to loading the sample chamber, the diluted samples were sonicated for 15 seconds to remove any gas nuclei.
The pressure drop across the air-water interface was measured during pulsation by a pressure transducer, and the corresponding surface tension was determined at minimum and maximum bubble size through the application of Young's law and the Laplace equation. Measurements were all made at 37° C. and the bubble pulsed at 20 cycles/minute to render respectively a maximum (1.1 mm) and a minimum (0.8 mm) bubble diameter. (This compression/expansion corresponds to a 50% change in the surface area of the air-water interface).

B1: SP-B(1-78): complete SP-B surfactant protein having 78 amino acid residues, used as control (protein, UniProt P07988 201-279, looked up)
Pulmonary …: FPIPLPYCWLCRALIKRIQAMIPKGALAVAVAQVCRVVPLVAGGICQCLAERYSVILLDTLLGRMLPQLVCRLVLRCSM
modifications: Pulmonary surfactant-associated protein B
notes: complete SP-B surfactant protein having 78 amino acid residues, used as control
Surface Tension Maximum [1]: 44.0 dynes/cm | Surface Tension Minimum [1]: 0.3 dynes/cm | Adsorption (equilibrium adsorption surface tension) [2]: 37.5 dynes/cm | Mean Minimum Surface Tension, relative peptide concentration 1/2 ([3]; 1/2 dilution of equimolar stock with lipid mixture): 1.5 mN/m | Mean Minimum Surface Tension, relative peptide concentration 1/4 ([3]; 1/4 dilution of equimolar stock with lipid mixture): 4.5 mN/m | Mean Minimum Surface Tension, relative peptide concentration 1/8 ([3]; 1/8 dilution of equimolar stock with lipid mixture): 21.5 mN/m | Mean Minimum Surface Tension, relative peptide concentration Equimolar ([3]; equimolar to 0.5 mg/mL SP-B(53-78), 445 sq. cm trough): 1.5 mN/m | Mean Minimum Surface Tension, relative peptide concentration 2% ([3]; peptide 2% of solids (0.5 mg/ml), 445 sq. cm trough): 1.6 mN/m | Surface tension Maximum (maximum bubble size) [4]: 50.6 (1.7) dyne/cm | Surface tension Minimum (minimum bubble size) [4]: 4.7 (0.3) dyne/cm
